From patent US20150344570A1 (published 2015)

T1: FcγRIIa R extracellular domain with C-terminal His tag (human, UniProt P12318 34-217)
T1 construct: extracellular domain; also called FcgRIIa R; 2aR; not shown: His tag at the C terminus
T1 sequence (looked up): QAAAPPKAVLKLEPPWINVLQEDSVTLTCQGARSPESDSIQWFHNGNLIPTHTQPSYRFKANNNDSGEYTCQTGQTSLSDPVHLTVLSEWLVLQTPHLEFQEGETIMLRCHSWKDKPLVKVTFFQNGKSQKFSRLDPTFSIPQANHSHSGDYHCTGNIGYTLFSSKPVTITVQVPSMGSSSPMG


Molecular target: T1, FcγRIIa R extracellular domain with …
Experiment: SPR (Biacore), relative FcγRIIa R binding, GpH7-B3/GpL16-k0 = 100
Method: Analysis of interaction between objective antibody and the FcγR was carried out using Biacore T100 (GE Healthcare). HBS-EP+ (GE Healthcare) was used as the running buffer, and the measurement temperature was set to 25° C. Chips produced by immobilizing the antigen peptide by the amine coupling method to a Series S Sencor Chip CM5 (GE Healthcare), or alternatively, chips produced by allowing preliminarily biotinylated antigen peptides to interact with and immobilize onto a Series S Sensor Chip SA (certified) (GE Healthcare) were used. Antibodies of interest were captured onto an antigen peptide-immobilized chip, and allowed to interact to each FcγR diluted with running buffer. To regenerate and repeatedly use the chip, the antibodies captured on the chip were washed off by reacting 10 mM glycine-HCl, pH 1.5.

Row | Binder | Ho/Con_2aR
1 | GpH7-B3 variant S337_02A/GpL16-k0 (antibody, human IgG1, kappa, homodimerized: alteration in both H chains; also called Ho Ab S337_02A) heavy: not shown light: DIVMTQSPLSLPVTPGEPASISCQASESLVHSNRNTYLHWYLQKPGQSPQLLIYKVSNRFSGVPDRFSGSGSGTDFTLKISRVEAEDVGVYYCSQNTHVPPTFGQGTKVEIERTVAAPSVFIFPPSDEQLKSGTASVVCLLNNFYPREAKVQWKVDNALQSGNSQESVTEQDSKDSTYSLSSTLTLSKADYEKHKVYACEVTHQGLSSPVTKSFNRGEC | 102 % of control
2 | GpH7-B3 variant A330_12R/GpL16-k0 (antibody, human IgG1, kappa, homodimerized: alteration in both H chains; also called Ho Ab A330_12R) heavy: not shown light: DIVMTQSPLSLPVTPGEPASISCQASESLVHSNRNTYLHWYLQKPGQSPQLLIYKVSNRFSGVPDRFSGSGSGTDFTLKISRVEAEDVGVYYCSQNTHVPPTFGQGTKVEIERTVAAPSVFIFPPSDEQLKSGTASVVCLLNNFYPREAKVQWKVDNALQSGNSQESVTEQDSKDSTYSLSSTLTLSKADYEKHKVYACEVTHQGLSSPVTKSFNRGEC | 101 % of control
3 | GpH7-B3 variant I336_08L/GpL16-k0 (antibody, human IgG1, kappa, homodimerized: alteration in both H chains; also called Ho Ab I336_08L) heavy: not shown light: DIVMTQSPLSLPVTPGEPASISCQASESLVHSNRNTYLHWYLQKPGQSPQLLIYKVSNRFSGVPDRFSGSGSGTDFTLKISRVEAEDVGVYYCSQNTHVPPTFGQGTKVEIERTVAAPSVFIFPPSDEQLKSGTASVVCLLNNFYPREAKVQWKVDNALQSGNSQESVTEQDSKDSTYSLSSTLTLSKADYEKHKVYACEVTHQGLSSPVTKSFNRGEC | 105 % of control
4 | GpH7-B3 variant H268_01G/GpL16-k0 (antibody, human IgG1, kappa, homodimerized: alteration in both H chains; also called Ho Ab H268_01G) heavy: not shown light: DIVMTQSPLSLPVTPGEPASISCQASESLVHSNRNTYLHWYLQKPGQSPQLLIYKVSNRFSGVPDRFSGSGSGTDFTLKISRVEAEDVGVYYCSQNTHVPPTFGQGTKVEIERTVAAPSVFIFPPSDEQLKSGTASVVCLLNNFYPREAKVQWKVDNALQSGNSQESVTEQDSKDSTYSLSSTLTLSKADYEKHKVYACEVTHQGLSSPVTKSFNRGEC | 122 % of control
5 | GpH7-B3 variant K326_04F/GpL16-k0 (antibody, human IgG1, kappa, homodimerized: alteration in both H chains; also called Ho Ab K326_04F) heavy: not shown light: DIVMTQSPLSLPVTPGEPASISCQASESLVHSNRNTYLHWYLQKPGQSPQLLIYKVSNRFSGVPDRFSGSGSGTDFTLKISRVEAEDVGVYYCSQNTHVPPTFGQGTKVEIERTVAAPSVFIFPPSDEQLKSGTASVVCLLNNFYPREAKVQWKVDNALQSGNSQESVTEQDSKDSTYSLSSTLTLSKADYEKHKVYACEVTHQGLSSPVTKSFNRGEC | 133 % of control
6 | GpH7-B3 variant G237_20W/GpL16-k0 (antibody, human IgG1, kappa, homodimerized: alteration in both H chains; also called Ho Ab G237_20W) heavy: not shown light: DIVMTQSPLSLPVTPGEPASISCQASESLVHSNRNTYLHWYLQKPGQSPQLLIYKVSNRFSGVPDRFSGSGSGTDFTLKISRVEAEDVGVYYCSQNTHVPPTFGQGTKVEIERTVAAPSVFIFPPSDEQLKSGTASVVCLLNNFYPREAKVQWKVDNALQSGNSQESVTEQDSKDSTYSLSSTLTLSKADYEKHKVYACEVTHQGLSSPVTKSFNRGEC | 107 % of control
7 | GpH7-B3 variant K326_20W/GpL16-k0 (antibody, human IgG1, kappa, homodimerized: alteration in both H chains; also called Ho Ab K326_20W) heavy: not shown light: DIVMTQSPLSLPVTPGEPASISCQASESLVHSNRNTYLHWYLQKPGQSPQLLIYKVSNRFSGVPDRFSGSGSGTDFTLKISRVEAEDVGVYYCSQNTHVPPTFGQGTKVEIERTVAAPSVFIFPPSDEQLKSGTASVVCLLNNFYPREAKVQWKVDNALQSGNSQESVTEQDSKDSTYSLSSTLTLSKADYEKHKVYACEVTHQGLSSPVTKSFNRGEC | 120 % of control
8 | GpH7-B3 variant I332_06M/GpL16-k0 (antibody, human IgG1, kappa, homodimerized: alteration in both H chains; also called Ho Ab I332_06M) heavy: not shown light: DIVMTQSPLSLPVTPGEPASISCQASESLVHSNRNTYLHWYLQKPGQSPQLLIYKVSNRFSGVPDRFSGSGSGTDFTLKISRVEAEDVGVYYCSQNTHVPPTFGQGTKVEIERTVAAPSVFIFPPSDEQLKSGTASVVCLLNNFYPREAKVQWKVDNALQSGNSQESVTEQDSKDSTYSLSSTLTLSKADYEKHKVYACEVTHQGLSSPVTKSFNRGEC | 105 % of control
9 | GpH7-B3 variant A327_10E/GpL16-k0 (antibody, human IgG1, kappa, homodimerized: alteration in both H chains; also called Ho Ab A327_10E) heavy: not shown light: DIVMTQSPLSLPVTPGEPASISCQASESLVHSNRNTYLHWYLQKPGQSPQLLIYKVSNRFSGVPDRFSGSGSGTDFTLKISRVEAEDVGVYYCSQNTHVPPTFGQGTKVEIERTVAAPSVFIFPPSDEQLKSGTASVVCLLNNFYPREAKVQWKVDNALQSGNSQESVTEQDSKDSTYSLSSTLTLSKADYEKHKVYACEVTHQGLSSPVTKSFNRGEC | 104 % of control

More lines, now with the values ahead:

Row | Ho/Con_2aR | Binder
10 | 106 % of control | GpH7-B3 variant A330_01G/GpL16-k0 (antibody, human IgG1, kappa, homodimerized: alteration in both H chains; also called Ho Ab A330_01G) heavy: not shown light: DIVMTQSPLSLPVTPGEPASISCQASESLVHSNRNTYLHWYLQKPGQSPQLLIYKVSNRFSGVPDRFSGSGSGTDFTLKISRVEAEDVGVYYCSQNTHVPPTFGQGTKVEIERTVAAPSVFIFPPSDEQLKSGTASVVCLLNNFYPREAKVQWKVDNALQSGNSQESVTEQDSKDSTYSLSSTLTLSKADYEKHKVYACEVTHQGLSSPVTKSFNRGEC
11 | 120 % of control | GpH7-B3 variant A327_09D/GpL16-k0 (antibody, human IgG1, kappa, homodimerized: alteration in both H chains; also called Ho Ab A327_09D) heavy: not shown light: DIVMTQSPLSLPVTPGEPASISCQASESLVHSNRNTYLHWYLQKPGQSPQLLIYKVSNRFSGVPDRFSGSGSGTDFTLKISRVEAEDVGVYYCSQNTHVPPTFGQGTKVEIERTVAAPSVFIFPPSDEQLKSGTASVVCLLNNFYPREAKVQWKVDNALQSGNSQESVTEQDSKDSTYSLSSTLTLSKADYEKHKVYACEVTHQGLSSPVTKSFNRGEC
12 | 113 % of control | GpH7-B3 variant G237_04F/GpL16-k0 (antibody, human IgG1, kappa, homodimerized: alteration in both H chains; also called Ho Ab G237_04F) heavy: not shown light: DIVMTQSPLSLPVTPGEPASISCQASESLVHSNRNTYLHWYLQKPGQSPQLLIYKVSNRFSGVPDRFSGSGSGTDFTLKISRVEAEDVGVYYCSQNTHVPPTFGQGTKVEIERTVAAPSVFIFPPSDEQLKSGTASVVCLLNNFYPREAKVQWKVDNALQSGNSQESVTEQDSKDSTYSLSSTLTLSKADYEKHKVYACEVTHQGLSSPVTKSFNRGEC
13 | 133 % of control | GpH7-B3 variant K326_07I/GpL16-k0 (antibody, human IgG1, kappa, homodimerized: alteration in both H chains; also called Ho Ab K326_07I) heavy: not shown light: DIVMTQSPLSLPVTPGEPASISCQASESLVHSNRNTYLHWYLQKPGQSPQLLIYKVSNRFSGVPDRFSGSGSGTDFTLKISRVEAEDVGVYYCSQNTHVPPTFGQGTKVEIERTVAAPSVFIFPPSDEQLKSGTASVVCLLNNFYPREAKVQWKVDNALQSGNSQESVTEQDSKDSTYSLSSTLTLSKADYEKHKVYACEVTHQGLSSPVTKSFNRGEC
14 | 134 % of control | GpH7-B3 variant K326_15Y/GpL16-k0 (antibody, human IgG1, kappa, homodimerized: alteration in both H chains; also called Ho Ab K326_15Y) heavy: not shown light: DIVMTQSPLSLPVTPGEPASISCQASESLVHSNRNTYLHWYLQKPGQSPQLLIYKVSNRFSGVPDRFSGSGSGTDFTLKISRVEAEDVGVYYCSQNTHVPPTFGQGTKVEIERTVAAPSVFIFPPSDEQLKSGTASVVCLLNNFYPREAKVQWKVDNALQSGNSQESVTEQDSKDSTYSLSSTLTLSKADYEKHKVYACEVTHQGLSSPVTKSFNRGEC
15 | 139 % of control | GpH7-B3 variant K326_03V/GpL16-k0 (antibody, human IgG1, kappa, homodimerized: alteration in both H chains; also called Ho Ab K326_03V) heavy: not shown light: DIVMTQSPLSLPVTPGEPASISCQASESLVHSNRNTYLHWYLQKPGQSPQLLIYKVSNRFSGVPDRFSGSGSGTDFTLKISRVEAEDVGVYYCSQNTHVPPTFGQGTKVEIERTVAAPSVFIFPPSDEQLKSGTASVVCLLNNFYPREAKVQWKVDNALQSGNSQESVTEQDSKDSTYSLSSTLTLSKADYEKHKVYACEVTHQGLSSPVTKSFNRGEC
16 | 131 % of control | GpH7-B3 variant K326_08L/GpL16-k0 (antibody, human IgG1, kappa, homodimerized: alteration in both H chains; also called Ho Ab K326_08L) heavy: not shown light: DIVMTQSPLSLPVTPGEPASISCQASESLVHSNRNTYLHWYLQKPGQSPQLLIYKVSNRFSGVPDRFSGSGSGTDFTLKISRVEAEDVGVYYCSQNTHVPPTFGQGTKVEIERTVAAPSVFIFPPSDEQLKSGTASVVCLLNNFYPREAKVQWKVDNALQSGNSQESVTEQDSKDSTYSLSSTLTLSKADYEKHKVYACEVTHQGLSSPVTKSFNRGEC
